Results: US4016250A, “Method for testing for pregnancy” (Cornell Research Foundation, Inc., priority 1974, dated 1977)

What was measured:
[1] = target: T1, receptor for HCG in plasma membranes from bovine corpora lutea (Bos taurus, UniProt Q28005); experiment: Radioreceptorassay of HCG: competition with 125I-HCG for plasma membrane receptor; format: binding
T1 construct: 100 g. of tissue from approximately 25 large corpora lutea; from tissue; host or cells: bovine corpora lutea of early pregnancy (slaughterhouse), plasma membrane fraction from zonal sucrose gradient
T1 sequence (Q28005 27-701): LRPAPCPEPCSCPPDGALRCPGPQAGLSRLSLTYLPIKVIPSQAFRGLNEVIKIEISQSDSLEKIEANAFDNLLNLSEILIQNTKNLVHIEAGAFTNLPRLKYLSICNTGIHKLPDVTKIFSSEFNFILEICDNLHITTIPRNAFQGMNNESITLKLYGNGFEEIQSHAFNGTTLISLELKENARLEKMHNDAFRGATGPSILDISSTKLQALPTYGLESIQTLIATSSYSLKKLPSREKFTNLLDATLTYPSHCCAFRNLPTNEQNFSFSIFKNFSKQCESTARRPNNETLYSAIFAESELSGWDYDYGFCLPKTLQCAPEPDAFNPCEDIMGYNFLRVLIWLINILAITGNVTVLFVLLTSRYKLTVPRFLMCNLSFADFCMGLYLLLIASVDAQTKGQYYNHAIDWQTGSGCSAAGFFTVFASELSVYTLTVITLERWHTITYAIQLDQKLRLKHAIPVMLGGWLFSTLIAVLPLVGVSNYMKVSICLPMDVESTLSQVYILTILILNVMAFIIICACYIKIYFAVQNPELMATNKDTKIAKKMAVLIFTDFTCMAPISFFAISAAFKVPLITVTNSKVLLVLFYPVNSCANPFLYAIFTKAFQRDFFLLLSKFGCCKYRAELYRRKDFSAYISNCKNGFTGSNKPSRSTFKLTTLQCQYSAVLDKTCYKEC
Description: All procedures in the preparation of plasma membranes were carried out in an ice bath or at 4° C. Fresh bovine ovaries from early pregnancy (first trimester: fetus length from crown to rump up to 22 cm.) were obtained from the slaughter house and stored in liquid nitrogen until processed. In a typical experiment, 100 g. of tissue from approximately 25 large corpora lutea were cut into small pieces with a sharp steel blade and ground in 500 ml. of 10 mM. Tris-HCl buffer of pH. 7.8 containing one mM. of MgCl2, one MM. dithiothreitol, 10,000I.U. of Trasylol (FBA Pharmaceuticals) per liter and 0.25 M. sucrose. The homogenate was filtered through two layers of cheese cloth and the larger particles were reprocessed in 500 ml. of the buffer. […] The homogenate was centifuged at 650 xg. for 20 minutes in a Sorvall refrigerated centrifuge (RC B, Rotor GSA) to remove intact cells, cell debris and nuclei. The 650 × g. supernatant was again centrifuged at 13,000 g. for 20 minutes in the same centrifuge. […]
In Table I, the incubation was performed for 30 minutes at 37° C. in a Dunaboff water bath shaker. […] The supernates were aspirated and the pellets were counted in a Packard Autogamma counter with a 51% efficiency for I^125. The standard curves and the hormonal concentration in the plasma samples were calculated by a time sharing IBM computer using logit-log transformations.

[2] = target: T2, PRL receptor sites in ovarian homogenates (Bos taurus, UniProt Q28172); experiment: Specificity of 125I-hPRL binding: displacement by unlabeled hormones; parameters: species or system bovine
T2 construct: from tissue; host or cells: ovarian homogenate (bovine, from the preparation section)
T2 sequence (Q28172 25-581): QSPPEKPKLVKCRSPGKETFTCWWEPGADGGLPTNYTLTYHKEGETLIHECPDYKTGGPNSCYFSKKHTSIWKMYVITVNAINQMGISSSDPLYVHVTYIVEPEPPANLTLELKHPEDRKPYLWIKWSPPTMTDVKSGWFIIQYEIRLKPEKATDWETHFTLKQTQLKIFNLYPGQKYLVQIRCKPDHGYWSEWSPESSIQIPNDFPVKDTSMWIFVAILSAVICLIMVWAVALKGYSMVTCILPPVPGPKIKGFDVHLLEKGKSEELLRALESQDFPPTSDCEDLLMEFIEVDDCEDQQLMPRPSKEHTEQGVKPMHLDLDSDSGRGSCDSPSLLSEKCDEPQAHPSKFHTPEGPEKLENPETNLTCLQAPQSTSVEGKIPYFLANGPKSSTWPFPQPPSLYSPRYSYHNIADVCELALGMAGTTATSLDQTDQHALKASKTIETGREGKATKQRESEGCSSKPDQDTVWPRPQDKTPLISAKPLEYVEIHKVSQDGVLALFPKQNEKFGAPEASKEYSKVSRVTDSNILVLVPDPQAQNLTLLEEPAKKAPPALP
Description: A reaction mixture containing 100 ul of incubation buffer containing 10 IU Trasylol (FBA Pharmaceuticals, New York, New York), 50 ul of receptor preparation equivalent to 1-300 ug of protein and 100 ul of ^125 I-hPRL (SA; 50-70 uCi/ug) were incubated at 37° C. for 2 hours in the absence and in the presence of 1 ug of unlabeled bovine PRL. At the end of incubation, 1 ml of ice cold buffer was added to all tubes and tubes were centrifuged at 5,000 rpm for 20 minutes. The supernatants were aspirated. The pellets containing receptor bound hormones were counted in an Automamma counter with a 51% efficiency for ^125 I (Packard Instrument Company, Downers Grove, Illinois). Specific binding was calculated as the difference of binding in the tubes with and without unlabeled PRL.

Substance | logit-log line of radioreceptorassay response compared with HCG ([1]; same system, different concentrations) | cross-reaction in the radioreceptorassay of HCG (FIG. 2) ([1]; FIG. 2 legends: TSH, HGH, PRL are plasma from hypothyroid, acromegalic, postpartum lactation subjects) | potency in displacing receptor-bound 125I-hPRL relative to hPRL [2] | displacement of 125I-hPRL bound to receptor protein ([2]; various concentrations)
LH from rat: sample of luteinizing hormone from rat | parallel to the line for HCG |  |  | 
human growth hormone [hGH] |  | no cross-reaction | 0.5-1 % of hPRL | capable of displacing
